# Assay results from the domain aggregation screens of Martell et al. (2025).
# Assay: soluble fraction after stress (log2 fold change); higher = more stays soluble; pooled small domains, quantitative proteomics
# Conditions: stress: 75 degC
# 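Note: 20 min heating vs room temperature control held 20 min.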
row,Sequence,soluble fraction (log2)
1,HMSHFRMLPSITEADAFLKSRSLPAGLEVREQVDAFLAQARQTLALAQEAPWLSKQEVLETLADEFVQTS,-0.652
2,HMSHFSERLKSLRQQSSITQAKLADDLNVTKSLISMYESGQRLPSFEMLETIADYFNVPLSSLV,-0.541
3,HMSHGFFTLQSDDLNLLRTVLEGHSSIGDIKIEGIQLVAYLKEPLNGAELNKILFEKGINLSYLVHRK,-2.9
4,HMSHGFVHLKGAVQHPGIYPVKENTRWDEVVKAAGGLTAAADIQQVNLAKVASDQESLYVPEKGET,0.149
5,HMSHGSIYFSGKTGLKGSVDINGTVNSINKKIFLKPGNYNFLIKADGYKNLKGSFQISKGDKKFVELVLIP,-2.1
6,HMSHGYVELKAENNDALISALENHTWFENIKLDPETNLVKAILTKPIEAENLNKMLFEKGIILSHLVKRK,-0.376
7,HMSHYDILEVDPKASATEIKQSFRKKSLQYHPDRNKSSDAHEYMTKITEAYNILGDKDKRRHYDMELKL,0.568
8,HMSHYEYKVGDRVNLLDYDDFGILYKEKDNFYNVVVYYNGEFVEVNVKRITLEVAAKELYPEGYDLSTLFV,-3.97
9,HMSIASASVKEKIRDIVSSEPPQKPFSDAKIAEILAEDGIAIARRTVAKYREEIGIPTKSLRKR,-0.0706
10,HMSIDNALLTLIGKTGTAQTVLRPSGKVVIGDEVYDAVTAGEFIDKGSAIVVTRVEATQLYVEASEA,-0.411
11,HMSIELEISADGNNYRVSGLSDGEDVRVYSVSGVQVFSGKAQGGEVVIPADNWNKGIYVISAGGSSVKVL,-0.594
12,HMSIGLEDLIEQKGVADTDLRPSGWINVGNQRIFVVTEGSYIDQNDNVIILSVDGNRVVVRKI,-1.2
13,HMSIGLEELVGSHGEAITDLRPAGQVSIAARRISAVSEGDFINKGDSVEVLSVEGYRVMVRKLET,-0.34
14,HMSIITLFQEINAAVAEATGGRVPESVVQNFILGKDVVIPEDVKEIIISKLKAFATDIEGMLEESGFD,-2.62
15,HMSILDEAEFKKIESALLDFITNNIFTVKELLQASRGIKQDKFWKVFQFLQSERKVVVNELGYIEL,-0.287
16,HMSILSIGLERGMKKGVAWGIAKSILDILEETGPVSEKTREMIVTETDAERLSAWVKKAARSNSEEDFLSK,-0.799
17,HMSILSRREHEIMQWVKGGKTNIEIAQILGISARTVRNHLQNVFRKLDVINRAQAVFEVERRR,-2.68
18,HMSIMNEQIREILNQQVTKTSKIQQLLLLGLTRRQVADLVTNGNYGFVQNVYRNMLDAGIFTP,-1.13
19,HMSIMNLSEKIVVLRKSNGMSQEELAEKLYVSRQAVSRWEMGTAVPDSTNILQLGKLFHVTTDYLLNDEYE,-3.36

row,Sequence,soluble fraction (log2)
1,HMSINQIADKGYITRLIDNNANIKDVLYYDASSRILAIEDPKYMFYLKNTDWNQFAKEMGFKLE,-0.794
2,HMSINTLEVHSLKALENLAESPLLISFSYENEEYNYRLASSDVSLLKKISSNYSDDSDIKGLRFIS,-0.893
3,HMSIQQEATGNRIRELLLNNGYTVKDIQEVMGFENPQAVYKWLSGKSLPNLDNLLILSKVLHTSIEDILV,-1.09
4,HMSISSIDFENLKSDELSDAQITQIYRQAQEQGLSIDELSSLAIARGMSPTEVAKLRSRFNSIP,0.0936
5,HMSIVVPDLRGKTLEEARAILKEADLDFEINDSTFSKTARPGTIRDVVPSPGSRVKAGRILFISINGF,-0.781
6,HMSIYQYFNISEINSIDDLKKQYFKLAKKYHPDAGGDKVSFQELQNEYEQLTKKILSGAELNADELKTE,-0.126
7,HMSKASLFFLFNHKDELYIVDNNHVQDVPKPRELIRRFSTIEQIREHALHLGLPIANDTARE,-3.31
8,HMSKEGLASLLEDINGLGAIRRKTLIDHFGSVAKIRGARPEEIAALPGMGRKIAEHILASLRED,-0.541
9,HMSKEKQILQLLQHGYSQRRIADTLSVSRNTVAKVAKAAIEHPVSSDSLDSIDELELHQKLFPEEVLI,-0.486
10,HMSKGKNEVIAYLKAHNDHRLTVAEILDGLKEEGISINRSTIYRNLDKLVENGDILAFKGKDSESAFYQYS,0.0611
11,HMSKHLWNKVLPKVTTANITNLINQAIRKGEWRMDNKGVVHIIWRYRGKIIEVTGYLKDKVFNVGNAWVR,0.226
12,HMSKITNALLMMKLLSNGKVYSVKELSEELGVTERMVRNYKEQLEMSGYIIESFKGPGGGYFINKN,-2.61
13,HMSKKAIVINLLKRPDGASLKDIMQATYWQAHSVRGFISGSLTKKMGLNVESFKRPDGERAYRIN,-2.47
14,HMSKLIDQELINFFKNQIESKSFRYGVSIEDSYEEIKSNQIKFYGEQEDKLKAIDNAFIELKRERAGIR,-0.168
15,HMSKNDLAGDEADVYKLLSVETGKPISDLVNRLPFGKSKTREILNTLAEKGFVYISGSGRGTKYHR,-0.296
16,HMSKNTFIGNIDDKELYVGSGRYGPFMLYDGKFTNITRYLSDESKELTDITIDDYSKIVNNARPK,-0.175
17,HMSKNVTMPNLVGYSMRQAKAELLSRGLHLGKLIYVNDIATNNVISQLYRNAEIEPGVKIESESYVDLVVG,-1.76
18,HMSKPTLTDELLTLDLFEEIIKAKENAKGANKRFSLVGFLESKYIVDQEMLPKVNVKVTEYYNLTREN,-1.8
19,HMSKPVVWIVGDSTVSAFTDNYYYPRYGWGTQIDKYLDGTFEVKNIALSGRSSTSYTADKEYGELIAG,0.293
